According to paper PMC8130932 (2021):

B1: FD 5D (antibody, V domains shown)
VH: EVQLVESGGGLVQPGGSLRLSCAASGFTFSSYSMNWVRQAPGKGLEWVSYISSSSSTIYYADPVKGRFTISRDNAKNSLYLQMNSLRAEDTAVYYCASPGGITAAGTSVLFGYYGMDVWGQGTMVTVSS
VL: not shown
B2: FI 1C (antibody, V domains shown)
VH: EVQLVESGGGLVKPGGSLRLSCAASGFTFSDYYMSWIRQAPGKGLEWVSYISSSGSTIYYADSVKGRFTISRDNAKNSLYLQMNSLRAEDTAVYYCARRSNRFLIAFDIWGQGTMVTVSS
VL: QSALTQPASVSGSPGQTITISCTGTSSDVGGYNYVSWYQQHPGKAPKLMIYEVSNRPSGVSNRFSGSKSGNTASLTISGLQAEDEADYYCSSYTSSSTLVVFGGGTKLTVP
B3: FD 11A (antibody, V domains shown)
VH: EVQLVESGGGVVQPGRSLRLSCAASGFTFSSYGMHWVRQAPGKGLEWVAVIWYDGSNKYYADSVKGRFTISRDNSKNTLYLQMNSLRAEDTAVYYCAKGPDILTGYYNYYYYGMDVWGQGTMVTVSS
VL: QSVLTQPPSVSGAPGQRVTISCTGSSSNIGAGYDVHWYQQLPGTAPKLLIYGNSNRPSGVPDRFSGSKSGTSASLAITGLQAEDEADYYCQSYDSSLSGFYVVFGGGTKLTVL
B4: FI 3A (antibody, V domains shown)
VH: EVQLLESGGGLIQPGGSLRLSCAASGFTVSSNYMSWVRQAPGKGLEWVSVIYSGGSTYYADSVKGRFTISRDNSKNTLYLQMNSLRAEDTAVYYCARDHVRPGMNIWGQGTMVTVSS
VL: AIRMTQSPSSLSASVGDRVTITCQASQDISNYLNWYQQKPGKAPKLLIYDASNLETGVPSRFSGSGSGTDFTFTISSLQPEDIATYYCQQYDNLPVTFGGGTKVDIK
B5: EY 6A (antibody, V domains shown)
VH: EVQLVESGGGVVQPGRSLRLSCAASAFTFSSYDMHWVRQAPGKGLEWVAVISYDGSNKYYADSVKGRFTISRDNSKNTLYLQMNSLRAEDTAVYYCAKDGGKLWVYYFDYWGQGTLVTVSS
VL: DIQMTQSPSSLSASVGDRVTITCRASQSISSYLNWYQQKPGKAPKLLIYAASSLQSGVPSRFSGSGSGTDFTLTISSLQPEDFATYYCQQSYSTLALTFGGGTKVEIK

The binders below were run against RBD-6H (340-538; NITN.GPKK), biotinylated (SARS-CoV-2) (assay: not given).

In order of rising IC50:
1. B4  0.008 µM
2. B1  0.034 µM
3. B2  0.109 µM
4. B3  0.164 µM
5. B5  0.189 µM

The binders below were run against RBD-VLP (Spycatcher-mi3 VLP-particles conjugated with Spytagged-RBD recombinant protein) (SARS-CoV-2) (assay: ELISA).

In order of rising IC50:
1. B2  0.003 µM
2. B4  0.003 µM
